Patent publication US20170298395A1, “AUTOTROPHIC HYDROGEN BACTERIA AND USES THEREOF” (Ohio State Innovation Foundation, priority 2011, published 2017)
Positions count from the first letter of the chain named. Numbers in names are those of the source.

B1: A117V (protein)
chain: MSSFLRALTLRQLQIFVTVARHASFVRAAEELHLTQPAVSMQVKQLESVVGMALFERVKGQLTLTEPGDRLLHHASRILGEVKDAEEGLQAVKDVEQGSITIGLISTSKYFAPKLLVGFTALHPGVDLRIAEGNRETLLRLLQDNAIDLALMGRPPRELDAVSEPIAAHPHVLVASPRHPLHDAKGFDLQELRHETFLLREPGSGTRTVAEYMFRDHLFTPAKVITLGSNETIKQAVMAGMGISLLSLHTLGLELRTGEIGLLDVAGTPIERIWHVAHMSSKRLSPASESCRAYLLEHTAEFLGREYGGLMPGRRVA
B2: D144N (protein)
chain: B1 chain with V117A, D144N
B3: G205D (protein)
chain: B1 chain with V117A, G205D
B4: L79F (protein)
chain: B1 chain with L79F, V117A
B5: E87K/G242S (protein)
chain: B1 chain with E87K, V117A, G242S
B6: constitutive cbbL promoter: constitutive R. eutropha cbbL promoter, SEQ ID NO: 30 (nucleic acid)
DNA: GCAACTGGCGAAGGGTAAGGGCGCGCAGGAAGGACGACATGGGCGGTTGGGGGCGGCTTTGGATGGTCCCGTGATGTGCAGCTTGGTCCGCACTTAAGGGATTGCTTATACAGGGGCTAAGAATATCTGAATTGACATTATGTGGGTGGGCTTATATAATTGCATCAACGCAGCAGCCAAGACGCTCAACCACGCAAGGAGACAAGC

The molecules below were run on RubisCO (assay: not given). Conditions: CA growth conditions.
Assay type: cell-based, Ralstonia eutropha

| Molecule | level of RubisCO relative to wild-type CbbR [fold] |
| --- | --- |
| B1 | 2.2 |
| B2 | 2.2 |

Same assay, conditions: Table 9, chemoautotrophic growth conditions

| Molecule | Chemoautotrophic RubisCO activity |
| --- | --- |
| B1 | 171 nmol/min/mg of protein |
| B2 | 188 nmol/min/mg of protein |
| B3 | 133 nmol/min/mg of protein |
| B4 | 209 nmol/min/mg of protein |
| B5 | 128 nmol/min/mg of protein |

Same assay, conditions: Table 12, chemoautotrophic (induced) growth

| Molecule | Chemoautotrophic RubisCO activity |
| --- | --- |
| B1 | 314 nmol/min/mg of protein |
| B2 | 314 nmol/min/mg of protein |
| B3 | 54 nmol/min/mg of protein |
| B4 | 304 nmol/min/mg of protein |
| B5 | 198 nmol/min/mg of protein |

Same assay, conditions: Table 12, chemoheterotrophic (repressed) growth

| Molecule | Chemoheterotrophic RubisCO activity |
| --- | --- |
| B1 | 6 nmol/min/mg of protein |
| B2 | 26 nmol/min/mg of protein |
| B3 | 10 nmol/min/mg of protein |
| B4 | 4 nmol/min/mg of protein |
| B5 | 6 nmol/min/mg of protein |

Each molecule was assayed on R. eutropha (assay: Relative promoter strength / gene expression in R. eutropha). Conditions: autotrophic growth conditions.
Assay type: cell-based
Procedure: The lac and tac promoters are E. coli promoters, but have been used to drive gene expression of other genes in R. eutropha. The pha promoter is a native R. eutropha promoter and drives expression of genes involved in polyhydroxybutyrate (PHB) production. The relative strength of these promoters in R. eutropha was determined. The pha promoter was 1.2 times stronger than the lac promoter and that the tac promoter was 2.1 times stronger than the lac promoter (1). The cbbM and cbbL promoters were also examined. The cbbM and cbbL promoters are strong promoters which drive expression of the genes that encode for RubisCO in Rhodosporilium rubrum/Rhodobacter sphaeroides/Rhodobacter capsulatus and R. eutropha, respectively. […] Each promoter was placed in the vector pBBR1MCS3, and the ability of these gene expression vectors was assessed (Table 4). The pBBR1 vector has Accession No. U02374 (4707 bp). The pBBR1MCS-3 vector has Accession No. U25059 (5228 bp). Plasmid pRPS-MCS3 (SEQ ID NO: 36) (see Journal of Molecular Biology, 331(3): 557-569 (2003)) derives from plasmid pBBR1-MCS3.
Vectors were made with the native cbbL and constitutive cbbL promoters. The cbbL promoter is native to R. eutropha and is highly expressed and regulated. […] To construct strains with a constitutive cbbL promoter, the lac promoter within the pBBR1MCS-3 vector was removed and replaced by the constitutive cbbL promoter. […]

| Molecule | increase in gene expression [fold] |
| --- | --- |
| B6 | 2.4 |

These molecules were tested on cbb promoter (assay: not given). Conditions: Table 9, chemoautotrophic growth conditions.
Assay type: cell-based, Ralstonia eutropha

| Molecule | Chemoautotrophic β-galactosidase activity |
| --- | --- |
| B1 | 6793 nmol/min/mg of protein |
| B2 | 6932 nmol/min/mg of protein |
| B3 | 2634 nmol/min/mg of protein |
| B4 | 6840 nmol/min/mg of protein |
| B5 | 4312 nmol/min/mg of protein |

Same assay, conditions: Table 12, chemoautotrophic (induced) growth

| Molecule | Chemoautotrophic β-galactosidase activity |
| --- | --- |
| B1 | 6793 nmol/min/mg of protein |
| B2 | 6932 nmol/min/mg of protein |
| B3 | 2241 nmol/min/mg of protein |
| B4 | 6840 nmol/min/mg of protein |
| B5 | 4820 nmol/min/mg of protein |

Same assay, conditions: Table 12, chemoheterotrophic (repressed) growth

| Molecule | Chemoheterotrophic β-galactosidase activity |
| --- | --- |
| B1 | 254 nmol/min/mg of protein |
| B2 | 809 nmol/min/mg of protein |
| B3 | 488 nmol/min/mg of protein |
| B4 | 218 nmol/min/mg of protein |
| B5 | 303 nmol/min/mg of protein |

Each molecule was assayed on cbbL transcript (assay: not given). Conditions: chemoautotrophic growth, 26 cycles of PCR.
Assay type: cell-based, Ralstonia eutropha

| Molecule | increase in transcription over wild type CbbR (RT-PCR, FIG. 22) [fold] |
| --- | --- |
| B2 | 1.8 |

Same assay, conditions: chemoautotrophic growth, OD 0.2

| Molecule | increase in cbb transcript over wild type CbbR (RT-PCR, FIG. 21) [fold] |
| --- | --- |
| B1 | 1.9 |
| B2 | 2.4 |

These molecules were tested on Ralstonia eutropha cbbR deletion reporter strain (assay: not given). Conditions: chemoautotrophic, CO2/H2/O2 atmosphere, minimal media.
Assay type: cell-based

| Molecule | Doubling Time [h] |
| --- | --- |
| B2 | 6.8 |
| B3 | 7.8 |
| B4 | 5.6 |
| B5 | 6.0 |
